Results as given in US20040001830A1.

Experiments:
Test in all cases: cell-based or functional assay
[1] = biological target: Thromboplastin from human (TF source of the TF-dependent clotting assay) (human) (UniProt P13726)
Lipidated TF (human) = Lipidated TF (human) (UniProt P13726)
[2] = biological target: Recombinant human soluble TF1-209 (human) (UniProt P13726)

- IC50, TF-dependent clotting assay (Assay 7) [1]: 0.0044 nM
- IC50, inhibition of FXa generation (Assay 5; 10 pM lipidated TF, 100 pM FVIIa, 50 nM FX) (Lipidated TF (human)): 51 pM
- IC50, inhibition of FVIIa/sTF amidolytic activity (Assay 4; 10 nM sTF, 10 nM FVIIa, substrate S2288) [2]: 7 nM
Substance: FFR-rFVIIa: FVIIa blocked in the active site with D-Phe-L-Phe-L-Arg-chloromethyl ketone (from UniProt P08709 61-212) (enzyme)
